Measured values taken from patent publication US20240409617A1.
Where a chain is given by its changes, count along the chain named.

B1: Ab 38 scFv-Fc (scFv, V domains shown)
VH: QVTLKESGPTLVKPTQTLTLTCTFSGFSLTTSGVSVGWIRQPPGKALEWLALIHWDDDKRYSPSLRSRLTITRDTSKNQVVLTVTDMDPADTGTYYCASFIMTVYAEYFEDWGQGTLVTVSS
VL: EIVLTQSPATLSVSPGERATLSCRASQSVSSNLAWYQQKPGQAPRLLMYDVSTRATGIPARFSGSGSGTEFSLTISSLQSEDFAVYYCQQRGAWPLTFGGGTKVEIK
B2: Ab_14 scFv-Fc (scFv, V domains shown)
VH: QVQLQQSGPGLVKPSQTLSLTCAISGDSVSSNSAAWNWIRQSPARGLEWLGRTYYRSRWYNDYAISMKSRITINPDTSKNQFSLQLESVTPEDTAVYYCAREIRGFDYWGQGTLVTVSS
VL: QSVLTQPPSASGSPGQSVTISCTGTSSDVGAYNFVSWYQHHPGKAPKLIIYDFNKRPSGVPDRFSGSKSGNTASLTVSGLQADDEADYYCSSYAGSNNFDVVFGGGTKLTVL
B3: Ab_23 scFv-Fc (scFv, V domains shown)
VH: EVQLVQSGAEVKKPGSSVKVSCRSSGGTFSTYGITWVRQAPGQGLEWMGRIIPSLGIPNYAQKFQGRVTITADTSVSTAWMELSSLESDDTAIYYCARENIDLATNDFWGQGTLVTVSS
VL: QSALTQPPSASGSPGQSVTISCTGTSRDIGAYGYVSWYQQVPGKAPKLIIYEVRNRPSGVSSRFSGSKSGNTASLTISGLQAEDEADYYCSSYTSSSTLDVVFGGGTKLTVL
B4: S1-RBD-R3-T1-B12 Ab (Ab_31) scFv-Fc (scFv, V domains shown)
VH: QVQLVQSGAEVKKPGSSVKVSCKASGGTFSSYTISWVRQAPGQGLEWMGGIIPILGTPNYAQKFQDRVAITADKSTSTAYMELSSLRSEDTAVYYCAVGSGWYSGFDYWGQGTLVTVSS
VL: NFMLTQPHSVSESPGKTVTISCTGSSGSIASNYVQWYQQRPGSAPTTVIYEDSQRPSGVPDRFSGSIDSSSNSASLTISGLKTEDEADYYCQSFHNSNPVIFGGGTKLTVL
B5: Ab_21 scFv-Fc (scFv, V domains shown)
VH: QVQLVQSGGGLVQPGGSLRLSCATSGFTFDDYAMHWVRQAPGKGLEWVSGISWNSGSIGYVDSVKGRFTISRDNRNNKVYLQMNNLRAEDTAVYYCARDWWGSIDHWGLGTLVTVSS
VL: QSALTQPRSVSGSPGQSVTISCTGTSSDVGGYDYVSWYQQHPGKAPKLIIYDVSKRPSGVPDRFSGSKSGNTASLTVSGLQAEDEADYYCSSYTSSSPVVFGGGTKLTVL
B6: S1-RBD-R3-T1-C7 Ab (Ab_29) scFv-Fc (scFv, V domains shown)
VH: QVQLQQSGPGLVKPSQTLSLTCAISGDSVSSYSDAWNWIRQSPSRGLEWLGRTYYRSKWYNDYAVSVKSRITINPDTSKNQFSLQLSSVTPEDTAVYYCAREIVATTPFRNYYYGMDVWGQGTTVTVSS
VL: NFMLTQPHSVSESPGNTVTISCTRTSGSIASNYVQWYQQRPGSSPTTVIFQDKLRPSGVPDRFSGSIDSSSNSASLTISGLKTEDEADYYCQSYDSSSLWVFGGGTKLTVL
B7: Ab_25 scFv-Fc (scFv, V domains shown)
VH: QVQLVQSGGGLVQPGGSLRLSCAASGFTFSSYWMSWVRQAPGKGLEWVANIKQDGSEKYYVDSVKGRFTISRDNAKNSLYLQMNSLRAEDTAVYYCARGFYYYGAFDIWGQGTTVTVSS
VL: B4 VL with S53N, D68G, F94Y, H95D, N96S, P99H, V100W, I101V
B8: S1-RBD-R3-T1-F5 (Ab2-7) scFv-Fc (scFv, V domains shown)
VH: QVTLKESGPTRVKPTQTLTLTCTFSGFSLSTTGVGVGWIRQPPGKALEWLALIYWNDDKRYSPSLKSRLTITKDTSKNQVVLTMTNMDPVDTATYYCARISGSGYFYPFDIWGQGTTVTVSS
VL: B6 VL with N16K, T25S, F50Y, Q51E, K53N, L54Q, T83A
B9: Ab_28 scFv-Fc (scFv, V domains shown)
VH: QVTLKESGPGLVNPSETLSLTCTVSGASISNSFWSWIRQSPGKGLEWIGYTSYSGNSIYNPSLKSRLTMSIDTSKNQLSLNLRSLTAADTAVYYCARREWIKGHFDYWGQGTLVTVSS
VL: B4 VL with S26G, S53N, F94Y, H95D, N96S, I101V
B10: Ab_20 scFv-Fc (scFv, V domains shown)
VH: QVQLVQSGGGSVKPGGSLRLSCAASGYRLSDYYMHWVRQAPGKGLEWVANIKQDGSEKYYVDSVKGRFTISRDNAKNSLYLQMNSLRAEDTAVYYCARVRGWSRGYFDYWGQGTLVTVSS
VL: B4 VL with S53N, T77L, F94Y, H95D, N96S, P99H, V100W, I101V
B11: Ab_13 scFv-Fc (scFv, V domains shown)
VH: B8 VH with T10K, R11L, T32S, N56D, T72A, N78Y, T117M, S122A
VL: B4 VL with G24R, S53N, F94Y, H95D, N96S, P99L, V100W, I101V
B12: RBD-R3-E1-B3 Ab (Ab_32) scFv-Fc (scFv, V domains shown)
VH: QVQLVQSGAEVKKPGESLKISCKGSGYSFTSYWIGWVRQMPGKGLEWMGIIYPGDSDTRYSPSFQGQVTISADKSISTAYLQWSSLKASDTAMYYCARGWQWHDYWGQGTLVTVSS
VL: QTVVTQEPAVSVALGQTVRITCQGDSLRSYYASWYQQKPGQAPVLVVYDKDKRPSGIPDRFSGSTSGNTASLTITGAQAEDEADYYCNSRDRSDNHVVFGGGTKLTVL
B13: S1-R3-T1-C4 (Ab_8) scFv-Fc (scFv, V domains shown)
VH: QVQLVQSGAEVKKPGSSVKVSCKASGGTFSSYAISWLRQAPGQGLEWMGWINPNSGGTNYAQKFQGRVTMTRDTSISTAYMELSRLRSDDTAVYYCARGSGGYYLGWGQGTLVTVSS
VL: QPGLTQPPSVSKGLRQTATLTCTGNSNNVGNQGAAWLQQHQGHPPKLLSYMNNNRPPGISERFSASRSGNTASLTITGLQPEDEADYYCSAWDSSLSRWVFGGGTKLSVL
B14: Ab_27 scFv-Fc (scFv, V domains shown)
VH: QVQLVQSGTEVKKPGASVKVSCKASGYSFTGSHLHWVRQAPGQGLEWMGWINPDSGVINYAQKFQGRVTLTRDTSISTAYMELSGLRSDDTAVYYCARDKAIGYVWALDYWGQGTLVTVSS
VL: QSALTQPPSVSGSPGQSVTISCTGTSSDVGTYNRVSWYQQPPGKAPKLMIYEVSNRPSGVSNRFSGSKSGNTASLTISGLQAEDEADYYCSSYTRTFTYVFGTGTKVTVL
B15: Ab_18 scFv-Fc (scFv, V domains shown)
VH: EVQLVQSGGGVVQPGRSLRVSCAASGFSFSRYGMHWVRQAPGKGLEWVAFIRHDGSKKYYADSVEGRFTISRDNSRNTVSLEMNSLRGEDTAVYYCAKDGRLEAALDDWGQGTLVTVSS
VL: NFMLTQPHSMSGSAGKTVTVSCIRSSGSIANNFVQWYQQRPGSAPTTVIYEDNQRPSGVPDRFSGSIDSSSNSASLTISGLKTEDEADYYCQSYDSSNLVFGGGTRLTVL
B16: Ab_26 scFv-Fc (scFv, V domains shown)
VH: QVQLVQSGGGLVQPGRSLRLSCAASGFTFDDYAMHWVRQVPGKGLEWVSGIDWNSGVIGYADSVKGRFTISRDNAKNSLYLQMNSLRAEDTALYYCAKDAYSYGFLGAFDIWGQGTMVTVSS
VL: LPVLTQPPSVSVAPGQTASITCGGDNIRTKGVHWYQQKPGQAPLLVIYYASDRPSGIPERFSGSSSGNTATLTISRVEAGDEADYYCQVWDSSSDLVVFGGGTTLTVL
B17: RBD-R3-E1-A5 Ab (Ab_30) scFv-Fc (scFv, V domains shown)
VH: QVQLVQSGGGVVQPGKSLRLSCTASGFTFSDFPIHWVRQAPGKGLEWVGVISYDGNIKYYGDSVKGRFTISRDNAKNSLYLQMNSLRVEDTAVYYCARGGSSFDIWGQGTTVTVSS
VL: SYELTQPPSVSEAPRQRVTISCSGSTSNIGNNAVSWYQHLPGKAPKLLIYYNERLPSGVSDRFSGSKSGTSASLAISGLRSEDEADYYCAAWDDSLSGHVVFGGGTKLTVL
B18: Ab_19 scFv-Fc (scFv, V domains shown)
VH: EVQLVESGAEVKKPGESLKISCKGSGYSFTSYWIGWVRQMPGKGLEWMGIIYPGDSDTRYSPSFQGQVTISADKSISTAYLQWSSLKASDTAMYYCARRGDLDAFDIWGQGTMVTVSS
VL: QPGLTQPPAASGTPGQRVTVSCSGASANIGSNAVSWFKQFPETAPRLLISGNTHRPSGVPDRVSGSKSGTSASLTISGLQSDDEADYYCAAWDDSLNGYVFGSGTKVTVL
B19: Ab_16 scFv-Fc (scFv, V domains shown)
VH: QVQLVQSGGGVVQPGRSLRLSCAASGFTFSNYGMHWVRQAPGKGLEWVALIWERGSKKDYADSVKGRFTVSRDNSKNTLYLQMNSLRPEDTAVYFCAREGISMTGAEYFQHWGQGTLVTVSS
VL: QSVLTQPPSVSGSPGQRVTMSCTGSSSNIGAGYDVHWYQQVPGAAPRLLIYGTNNRPSGVPDRFSGSKSGTSASLTITGLQAEDEADYYCQSYDNSLTDPYVFGTGTKVTVL
B20: Ab_17 scFv-Fc (scFv, V domains shown)
VH: QVQLVQSGGGVVQPGRSLRLSCAASGFTFDDYAMHWVRQVPGKGLEWVSGIDWNSGVIGYADSVKGRFTISRDNVKNSLYLQMNSLRTEDSALYYCAKDIGPGGSGSYYAFDIWGQGTTVTVSS
VL: QSALTQPASVSGSPGQSITISCTGTSSDVGGSKYVSWYQQHPGKAPKVMIYDVTKRPSGVPDRFSGSKSGNTASLTISGLQAEDEADYYCAAWDDSLNGVVFGGGTKLTVL
B21: Ab2-7 IgG (antibody, V domains shown)
VH: B8 VH
VL: B6 VL with N16K, T25S, F50Y, Q51E, K53N, L54Q, T83A

target: WT Spike (SARS-CoV-2 spike protein) (SARS-CoV-2); assay: not given

Binder	Kd [pM]	Response
B1	7.86	0.274

target: WT Spike (SARS-CoV2); assay: not given

Binder	Kd [pM]	Response
B2	8.22	0.313
B3	8.84	0.0845
B4	< 1	0.101
B5	9.25	0.147
B6	149	0.126
B7	8.9	0.0219
B8	7.85	0.0672
B9	8.9	0.132
B10	9.01	0.0985
B11	8.55	0.0732
B12	6.32	0.131
B13	7.15	0.118
B14	8.78	0.202
B15	9.07	0.216
B16	11	0.185
B17	1.02	0.107
B18	8.9	0.121
B19	11.8	0.346
B20	6.35	0.248

target: SARS-CoV-2 receptor binding domain (RBD), recombinant, biotinylated (SARS-CoV-2); assay: not given

Binder	Kd [pM]	koff [s⁻¹]	kon [M⁻¹ s⁻¹]
B21	268	3.93e-05	147000

target: SARS-CoV-2 spike protein on stably transduced 293T cells (SARS-CoV-2); assay: FACS binding curve, percent of cells labeled

Binder	fold shift of the FACS binding curve to the right, IgG against scFv-Fc [fold]
B21	10
